From patent US20250215100A1 (HARBOUR BIOMED SHANGHAI, published 2025)
Read-outs that look alike come from different tables or passages of the source.

Legend:
human CD40 on cells [1] = target: T1, human CD40 on cells (human, UniProt P25942 21-277); assay: FACS, Raji cells
T1 construct: whole, on cells; The cell line used is named in each row's assay; also called hCD40; TNFRSF5
Source text: (§1) Flow cytometry (FACS) was used to detect the binding ability of the CD40 antibody to cells, such as, CHO-K1/hCD40 highly expressing human CD40 (constructed by Beijing Kyinno Biotechnology), CHO-K1/cyCD40 highly expressing cynomolgus monkey CD40 (constructed by Beijing Kyinno Biotechnology) and lymphoma cell highly expressing human CD40, Raji (ATCC, #CCL-86). Specifically, the cells were digested and resuspended with complete medium (F-12K for CHO-K1 cells; and RPMI-1640 for Raji cells); and the cells were adjusted to a cell density of 1×10⁶ cells/mL. The cells were seeded in a 96-well V-bottom plate (Corning, #3894) at 100 μL/well, and the antigen binding protein to be tested at 2x final concentration was then added at 100 μL/well and mixed evenly, with the highest final concentration of the antigen binding protein of 300 nM, a total of 8 concentrations, and 5-fold concentration gradient dilution. hIgG (Crownbio, #C0002) was used as a negative control, and the positive control molecule was the molecule in Table 1-5. The cells were incubated at 4° C. for 1 hours in the dark. After the incubation, the cells were rinsed twice by adding pre-chilled PBS at 100 μL/well, and centrifuged at 500 g at 4° C. for 5 minutes, and the supernatant was discarded. Then, a fluorescent secondary antibody (goat anti-human IgG (H+L) secondary antibody, Alexa Fluor® 488 conjugate, Invitrogen, #A11013, 1:1000 dilution) was added at 100 µL/well, and the cells were incubated at 4° C. for 30 minutes in the dark. The cells were washed twice with pre-chilled PBS at 200 μL/well, and centrifuged at 500 g at 4° C. for 5 minutes, and the supernatant was discarded. Finally, the cells were resuspended in pre-chilled PBS at 200 μL/well. The fluorescence signal values were read using a BD FACS CANTOII flow cytometer or ACEA NovoCyte flow cytometer, and the data were processed and analyzed using FlowJo v10 software (FlowJo, LLC).
(§2) Data processing and graphical analysis were performed using GraphPad Prism 8 software. The binding curve of the antibody to the target cell and parameters, such as EC50 value were obtained by four-parameter nonlinear fitting.

[2] = target: T2, cynomolgus monkey CD40 on cells (cynomolgus monkey, UniProt G7PG38 21-278); assay: FACS, CHO-K1/cyCD40 cells
T2 construct: also called cyCD40; CHO-K1/cyCD40
T2 sequence (G7PG38 entry or part of it limits assumed): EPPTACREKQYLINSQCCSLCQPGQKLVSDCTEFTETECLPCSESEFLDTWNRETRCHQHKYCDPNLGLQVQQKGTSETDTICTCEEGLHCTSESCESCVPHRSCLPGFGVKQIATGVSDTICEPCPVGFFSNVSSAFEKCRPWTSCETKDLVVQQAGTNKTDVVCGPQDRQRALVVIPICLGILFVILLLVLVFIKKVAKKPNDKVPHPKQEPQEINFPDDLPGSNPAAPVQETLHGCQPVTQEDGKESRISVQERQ
Source text: as §1, §2

human CD40 on cells [3] = target: T1, human CD40 on cells; assay: FACS, CHO-K1/hCD40 cells
Source text: as §1, §2

human CD40 protein = target: T3, human CD40 protein (human, UniProt P25942 21-193, limits assumed); assay: BLI (Octet Red 96e), antibody captured on AHC sensor, human CD40 protein in solution, 1:1 global fit
T3 construct: the construct is not described
T3 sequence (P25942 21-193 limits assumed): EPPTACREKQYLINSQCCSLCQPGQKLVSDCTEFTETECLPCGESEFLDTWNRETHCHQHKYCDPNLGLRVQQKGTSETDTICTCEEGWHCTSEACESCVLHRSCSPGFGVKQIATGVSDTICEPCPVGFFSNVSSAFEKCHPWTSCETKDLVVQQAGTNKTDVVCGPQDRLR
Protocol: To detect the affinity of CD40 antibodies for antigens such as human CD40 protein, the binding kinetics between antigen and antibody was analyzed using an Octet Red 96e (Fortebio) molecular interaction analyzer by biolayer interferometry (BLI) technique.
For determining the affinity of antibodies for antigens, the rotary speed of the sensor was set at 1000 rpm. […] The AHC sensors were finally regenerated by immersing in a 10 mM glycine-hydrochloric acid solution with pH 1.5 to elute the protein bound to the sensors.
For data analysis using Octet Data Analysis software (Fortebio, version 11.0), 0 nM well was used as the reference well, reference subtraction was performed, “1:1 Global fitting” method was selected for data fitting, the kinetic parameters of the binding of the antigen to the CD40 antibodies were calculated, and the kon (1/Ms) value, kdis (1/s) value and KD (M) value were obtained.

human CD40 on cells [4] = target: T1, human CD40 on cells; assay: cell-based or functional assay
human CD40 on cells [5] = target: T1, human CD40 on cells; assay: FACS, inhibition of human CD40L-his binding to CHO-K1/hCD40 cells
Protocol: To detect the effect of CD40 antibodies on the binding of CD40 to CD40L, CHO-K1/hCD40 cells were plated at 2×10⁵/well or 100 μL/well into a 96-well plate (Corning, #3799) and centrifuged, and the supernatant was taken and the dilution solution of the antigen binding protein to be tested was added at 50 μL/well with an initial concentration of 500 nM, 5-fold concentration dilution and a total of 8 concentrations. 20 μg/mL of human CD40L-his protein (Sino biological, #10239-H08E) was added at 50 μL/well, the cells were incubated at 4° C. for 1 hour and then washed 3 times with FACS buffer (1×PBS with 2% FBS). 1:400 diluted anti-histidine tag secondary antibody (GenScript, #A01800) was added, and the cells were incubated at 4° C. for 1 hour, then washed 2 times with FACS buffer, and resuspended in pre-chilled PBS. The fluorescence signal values were read using a BD FACS CANTOII flow cytometer or ACEA NovoCyte flow cytometer, and the data were processed and analyzed using FlowJo v10 software (FlowJo, LLC).
Data processing and graphical analysis were performed using GraphPad Prism 8 software. The curve of the antibody concentration-dependent inhibition rate and parameters, such as IC50 value were obtained by four-parameter nonlinear fitting.

human CD40 on cells [6] = target: T1, human CD40 on cells; assay: cell-based or functional assay; remark: listed apart in the source

T1 sequence (P25942 21-277): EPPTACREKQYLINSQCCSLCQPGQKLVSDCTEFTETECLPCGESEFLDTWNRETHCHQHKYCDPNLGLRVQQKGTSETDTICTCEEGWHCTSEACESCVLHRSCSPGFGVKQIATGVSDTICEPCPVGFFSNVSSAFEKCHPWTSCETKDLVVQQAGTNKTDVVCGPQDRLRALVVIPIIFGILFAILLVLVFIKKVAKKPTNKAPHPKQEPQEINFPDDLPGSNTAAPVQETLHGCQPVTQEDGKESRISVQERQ

| Binder | EC50 (human CD40 on cells [1]) | Maximum MFI (human CD40 on cells [1]) | EC50 [2] | Maximum MFI [2] | EC50 (human CD40 on cells [3]) | Maximum MFI (human CD40 on cells [3]) | Kd (human CD40 protein) | koff (human CD40 protein) | kon (human CD40 protein) | EC50 (nM), crosslinked (CHO-K1/hCD32B), HEK293-hCD40-NFkB reporter (human CD40 on cells [4]) | EC50 (nM), uncrosslinked, HEK293-hCD40-NFkB reporter (human CD40 on cells [4]) | Maximum RLU, crosslinked (CHO-K1/hCD32B), HEK293-hCD40-NFkB reporter (human CD40 on cells [4]) | Maximum RLU, uncrosslinked, HEK293-hCD40-NFkB reporter (human CD40 on cells [4]) | RLU fold (crosslinked/uncrosslinked) (human CD40 on cells [4]) | IC50 (human CD40 on cells [5]) | Maximum inhibition rate (%) (human CD40 on cells [5]) | EC50 (nM), crosslinked, HEK293-hCD40-NFkB reporter (human CD40 on cells [6]) | EC50 (nM), uncrosslinked, HEK293-hCD40-NFkB reporter (human CD40 on cells [6]) | Fold (EC50 in the absence of crosslinking/EC50 in the presence of crosslinking) (human CD40 on cells [6]) | Maximum fold (fold), crosslinked (human CD40 on cells [6]) | other results |
| --- | --- | --- | --- | --- | --- | --- | --- | --- | --- | --- | --- | --- | --- | --- | --- | --- | --- | --- | --- | --- | --- |
| PR001028 (Selicrelumab) (antibody, human IgG2, kappa, V domains shown, CD40 positive control antibody) VH: not shown VL: DIQMTQSPSSVSASVGDRVTITCRASQGIYSWLAWYQQKPGKAPNLLIYTASTLQSGVPSRFSGSGSGTDFTLTISSLQPEDFATYYCQQANIFPLTFGGGTKVEIKR | 0.484 nM | 2450 MFI | 5.97 nM | 106000 MFI | 10.3 nM | 85000 MFI | 4.5 nM | 0.00048 s⁻¹ | 107000 M⁻¹ s⁻¹ | 0.0413 nM | 0.163 nM | 17000 RLU | 13400 RLU | 1.28 fold | – | – | – | – | – | – | – |
| PR001306 (CDX-1140) (antibody, human IgG2, kappa, V domains shown, CD40 positive control antibody) VH: QVQLVESGGGVVQPGKSLRLSCAASGFTFSSNGIHWVRQAPGKGLEWVAVIWSDGSNKFYADSVKGRFTISRDNSKNTLYLQMNSLRAEDTAVYYCARASGSGSYYNFFDYWGQGTLVTVSS VL: EIVMTQSPATLSVSPGERATLSCRASQSVRSNLAWYQQKPGQAPRLLIYGASTRATGIPARFSGSGSGTEFTLTINSLQSEDFAVYYCQQHNKWITFGQGTRLEIKR | 0.028 nM | 614 MFI | 5.54 nM | 39700 MFI | 12.2 nM | 29200 MFI | 0.525 nM | 0.00057 s⁻¹ | 1.09e+06 M⁻¹ s⁻¹ | 0.0506 nM | 0.0371 nM | 22600 RLU | 20000 RLU | 1.13 fold | 4.4 nM | 24% | – | – | – | – | – |
| PR006510 (antibody, human IgG1, kappa, V domains shown, PR003379 variant L:S93R; human IgG1 L234A, L235A, G237A) VH: QVQLVQSGAEVKKPGASVKVSCKASGYTFAGYYMYWVRQAPGQGLEWMGWINPDSGAPTYAQKFQGRVTMTRDTSISTAYMELSRLRSDDTAVYYCAREKIYYGSGNYYPSFDYWGQGTLVTVSS VL: DIQLTQSPSFLSASVGDRVTITCRASQGISSYLAWYQQKPGKAPKLLIYAASTLQSGVPSRFSGSGSGTEFTLTISSLQPEDFATYYCQQLNRYPWTFGQGTKVEIKR | 0.376 nM | 12400 MFI | 4.55 nM | 44300 MFI | 4.98 nM | 83000 MFI | – | – | – | – | – | – | – | – | – | – | 0.0423 nM | 0.125 nM | 2.96 fold | 4.66 fold | Maximum fold (fold), uncrosslinked (human CD40 on cells [6]): 4.54 fold |
| PR006511 (antibody, human IgG1, kappa, V domains shown, PR003379 variant L:S93N; human IgG1 L234A, L235A, G237A) VH: QVQLVQSGAEVKKPGASVKVSCKASGYTFAGYYMYWVRQAPGQGLEWMGWINPDSGAPTYAQKFQGRVTMTRDTSISTAYMELSRLRSDDTAVYYCAREKIYYGSGNYYPSFDYWGQGTLVTVSS VL: DIQLTQSPSFLSASVGDRVTITCRASQGISSYLAWYQQKPGKAPKLLIYAASTLQSGVPSRFSGSGSGTEFTLTISSLQPEDFATYYCQQLNNYPWTFGQGTKVEIKR | 0.386 nM | 11800 MFI | 3.68 nM | 40300 MFI | 4.99 nM | 79400 MFI | – | – | – | – | – | – | – | – | – | – | 0.16 nM | 0.815 nM | 5.1 fold | 5.19 fold | Maximum fold (fold), uncrosslinked (human CD40 on cells [6]): 4.5 fold |
| PR006515 (antibody, human IgG1, kappa, V domains shown, PR003379 variant L:S93M; human IgG1 L234A, L235A, G237A) VH: QVQLVQSGAEVKKPGASVKVSCKASGYTFAGYYMYWVRQAPGQGLEWMGWINPDSGAPTYAQKFQGRVTMTRDTSISTAYMELSRLRSDDTAVYYCAREKIYYGSGNYYPSFDYWGQGTLVTVSS VL: DIQLTQSPSFLSASVGDRVTITCRASQGISSYLAWYQQKPGKAPKLLIYAASTLQSGVPSRFSGSGSGTEFTLTISSLQPEDFATYYCQQLNMYPWTFGQGTKVEIKR | 0.322 nM | 8900 MFI | 3.75 nM | 50600 MFI | 4.59 nM | 86300 MFI | – | – | – | – | – | – | – | – | – | – | 0.0669 nM | 0.268 nM | 4.01 fold | 4.91 fold | Maximum fold (fold), uncrosslinked (human CD40 on cells [6]): 4.54 fold |
| PR001304 (APX005M) (antibody, human IgG1, kappa, CD40 positive control antibody) heavy: not shown light: DIQMTQSPSSLSASVGDRVTIKCQASQSISSRLAWYQQKPGKPPKLLIYRASTLASGVPSRFSGSGSGTDFTLTISSLQPEDVATYYCQCTGYGISWPIGGGTKVEIKRTVAAPSVFIFPPSDEQLKSGTASVVCLLNNFYPREAKVQWKVDNALQSGNSQESVTEQDSKDSTYSLSSTLTLSKADYEKHKVYACEVTHQGLSSPVTKSFNRGEC | – | – | – | – | – | – | 7.14 nM | 0.00264 s⁻¹ | 369000 M⁻¹ s⁻¹ | 0.042 nM | 0.355 nM | 23200 RLU | 11900 RLU | 1.95 fold | 10 nM | 26% | – | – | – | – | – |
| PR003379 (antibody, human IgG2, kappa, Fully human recombinant IgG2, kappa light chain; from Harbour H2L2 mice; also called 18C4A12-1B1 (clone No.)) heavy: QVQLVQSGAEVKKPGASVKVSCKASGYTFAGYYMYWVRQAPGQGLEWMGWINPDSGAPTYAQKFQGRVTMTRDTSISTAYMELSRLRSDDTAVYYCAREKIYYGSGNYYPSFDYWGQGTLVTVSSASTKGPSVFPLAPCSRSTSESTAALGCLVKDYFPEPVTVSWNSGALTSGVHTFPAVLQSSGLYSLSSVVTVPSSNFGTQTYTCNVDHKPSNTKVDKTVERKCCVECPPCPAPPVAGPSVFLFPPKPKDTLMISRTPEVTCVVVDVSHEDPEVQFNWYVDGVEVHNAKTKPREEQFNSTFRVVSVLTVVHQDWLNGKEYKCKVSNKGLPAPIEKTISKTKGQPREPQVYTLPPSREEMTKNQVSLTCLVKGFYPSDIAVEWESNGQPENNYKTTPPMLDSDGSFFLYSKLTVDKSRWQQGNVFSCSVMHEALHNHYTQKSLSLSPGK light: DIQLTQSPSFLSASVGDRVTITCRASQGISSYLAWYQQKPGKAPKLLIYAASTLQSGVPSRFSGSGSGTEFTLTISSLQPEDFATYYCQQLNSYPWTFGQGTKVEIKRTVAAPSVFIFPPSDEQLKSGTASVVCLLNNFYPREAKVQWKVDNALQSGNSQESVTEQDSKDSTYSLSSTLTLSKADYEKHKVYACEVTHQGLSSPVTKSFNRGEC | 0.0699 nM | 3700 MFI | 3.88 nM | 117000 MFI | 6.34 nM | 81600 MFI | 0.138 nM | 0.000144 s⁻¹ | 1.04e+06 M⁻¹ s⁻¹ | 0.178 nM | 0.369 nM | 19700 RLU | 8250 RLU | 2.38 fold | 17 nM | 41.9% | – | – | – | – | – |
